B1: OR4K15 (parent)
chain: GUUAACGGUCAUAGGCCAUGGAAACUAGGAGCACCAUUUCGCUGCCAGUGAAGAAAUGAACAAAGAAAAUCUGGGCCAGGCAGGCAUCAAAAGAAAUAGUCUUGCGCUCAACCAGAAAGUCUGUAAUCAUUUUAAGGGUA

Variants of: B1
Assay: self-cleavage, relative activity (ratio to wild type); higher = more cleavage; in vitro, sequencing; the parent is a self-cleaving ribozyme

| Variant | self-cleavage |
| --- | --- |
| A13G G15U | 1.33 |
| A24G A67U | 1.32 |
| A68U U132C | 1.76 |
| A22G C46U | 1.36 |
| A47U U103G | 0.03 |
| A89C U103C | 0.8 |
| A33C A47G | 1.05 |
| G14U A111G | 0.05 |
| U38C A86C | 1.31 |
| G75C A126C | 0.09 |
| C6U A94G | 1.68 |
| A11G U131C | 0.79 |
| A63C C81U | 0.41 |
| U2C A64G | 1.48 |
| A54G U127C | 1.07 |
| A18C A82G | 0.44 |
| A11U A78C | 0.22 |
| U102C G106A | 0.02 |
| A94G A134G | 1.03 |
| A30C U120C | 0.69 |
| A95G A118U | 1.09 |
| A59G A60U | 2.03 |
| A33U C77A | 1 |
| U43C A63C | 2.53 |

| Variant | self-cleavage |
| --- | --- |
| A33G U70C | 0.22 |
| A27G A111G | 0.03 |
| A18G A33G | 0.97 |
| A78C U131C | 0.17 |
| A98G U100C | 2.04 |
| A36G A66U | 2.4 |
| A82G A98G | 0.27 |
| C6A | 1.28 |
| U19C U102C | 2.32 |
| G73A U122A | 0.15 |
| U19A U87C | 0.97 |
| A96G U103A | 1.08 |
| G8A U103C | 1.61 |
| A18U | 1.11 |
| A47G A125G | 0.28 |
| A47G A125U | 1.01 |
| U37G A68G | 1.5 |
| A54U A134G | 1.32 |
| A23U G93A | 1.85 |
| G75C U122C | 0.12 |
| C105U U122A | 0.27 |
| A30G A68G | 1.49 |
| A91G U100C | 2.19 |
| A30G A90G | 1.37 |

| Variant | self-cleavage |
| --- | --- |
| A92U U127A | 1.77 |
| C46U A86G | 1.41 |
| U38C A89C | 1.6 |
| G28A A89U | 1.38 |
| A78G G80A | 0.13 |
| A33U A82G | 0.88 |
| U38C G119U | 1.69 |
| A98G A114G | 0.15 |
| U120C U130A | 0.71 |
| A63G A66G | 1.7 |
| A64G G106U | 0.02 |
| A51G U57C | 0.93 |
| U43A A95G | 0.92 |
| G14A A36G | 1.17 |
| U37C U103G | 0.02 |
| A5U A33C | 1.62 |
| A51U A125U | 1.64 |
| A54U A98G | 0.2 |
| U57A U132A | 0.7 |
| A66G A86C | 1.45 |
| U43A A126G | 1.25 |
| A117U A118C | 0.51 |
| A11G G31C | 1.04 |
| A59G G93A | 1.61 |

| Variant | self-cleavage |
| --- | --- |
| U103C A116G | 0.5 |
| U97A U122C | 1.83 |
| A18U A24U | 1.36 |
| U108C A125U | 0.01 |
| A33G U131C | 0.63 |
| G28A A55C | 1.7 |
| A52U A86G | 1.61 |
| A69G A114U | 0.1 |
| U3A U122C | 1.35 |
| U43A U132C | 1.86 |
| A52G A95G | 2.12 |
| A68G C85U | 1.49 |
| A56G A118G | 1.19 |
| A68U | 1.83 |
| U39A C109U | 0.37 |
| A96G U102A | 1.52 |
| G74A U87A | 0.22 |
| U12C U70C | 1.25 |
| A66U U108C | 0.02 |
| U57G A64G | 0.9 |
| A66G A134C | 1.71 |
| A27G A90U | 1 |
| G31U A60G | 1.37 |
| U87A A116G | 0.28 |

| Variant | self-cleavage |
| --- | --- |
| C35U A86G | 0.68 |
| A24G C46U | 0.73 |
| A118G U122A | 0.79 |
| A11G A135U | 0.99 |
| U131C U132C | 1.1 |
| A89G A110G | 0.12 |
| A52G A118U | 0.59 |
| U57G U130C | 0.44 |
| A78G A114G | 0.05 |
| A66G A68C | 1.13 |
| A66G A68G | 0.62 |
| A23U G137A | 1.46 |
| G29C C42U | 1.06 |
| A117U U131C | 1.01 |
| A96G A129U | 1.08 |
| U2A A116U | 0.18 |
| A18G U130A | 1.84 |
| A92G G106U | 0.01 |
| A110C A114U | 0.01 |
| A67C A125G | 0.85 |
| U37C G137A | 1.64 |
| A23G G50U | 0.79 |
| A30G A69G | 1.27 |
| C34U U87C | 1.63 |

| Variant | self-cleavage |
| --- | --- |
| A36C U87A | 2.59 |
| A59G A114G | 0.26 |
| U43C U122C | 0.81 |
| U49A A60G | 1.32 |
| A60C U87C | 1.18 |
| A52G U108C | 0.02 |
| A4G A92U | 1.44 |
| C107G A117G | 0.01 |
| A24U A55G | 1.53 |
| U26C A60G | 1.61 |
| A11G A78G | 0.54 |
| C77U U132C | 1.95 |
| G58U A117G | 1.89 |
| A11U A51C | 1.16 |
| A67U A96G | 1.65 |
| U9C G84A | 1.54 |
| A5U U122A | 1.48 |
| U100C A111C | 0.01 |
| U26C A86G | 1.33 |
| U9C U132C | 1.45 |
| A36C | 1.52 |
| C34U U43C | 1.48 |
| U124A U127C | 0.65 |
| G79A A94U | 0.15 |

| Variant | self-cleavage |
| --- | --- |
| A95C | 1.06 |
| U72A A95G | 0.36 |
| A13G U97C | 0.78 |
| A54U A78U | 0.29 |
| A23C A30G | 0.62 |
| G15U A68C | 1.71 |
| U87C U124C | 0.83 |
| A22G A129U | 0.78 |
| A22G U131A | 1.53 |
| C88A U102C | 2.23 |
| U9C A30G | 1.13 |
| U127C U139C | 0.89 |
| U37C A96G | 1.36 |
| C46U A129G | 1.52 |
| A92U A94G | 1.76 |
| A86G G115A | 0.14 |
| A86G A96U | 1.37 |
| A24C A118C | 0.84 |
| G20A A92U | 0.79 |
| A96G A134G | 1.81 |
| A30U A129U | 0.63 |
| G14A A67G | 1.66 |
| G28U A134C | 2.09 |
